Test results reported in US10835594B2, “Type III secretion injectisome proteins for treatment and prevention of chlamydial infections” (priority 2014, dated 2020).

System: murine C. trachomatis (Cmu)
Experiment: Immunization of mice and live intravaginal challenge with Cmu
Set-up: species or system BALB/c mice
Conditions: mouse, in vivo

B1: Cpn0803 protein: Chlamydia pneumoniae type III secretion-associated protein, SEQ ID NO: 1 (protein, listed as Chlamydia pneumoniae)
chain: MAAKTKTLELEDNVFLLLEGNLKRIFATPIGYTTFREFQNVVFNCANGQQEIANFFFEMLINGKLTQELAPQQKQAAHSLIAEFMMPIRVAKDIHERGEFINFITSDMLTQQERCIFLNRLARVDGQEFLLMTDVQNTCHLIRHLLARLLEAQKNPVGEKNLQEIQEEITSLKNHFDELTKALQ
immune response protective against live challenge: protective against a live challenge with Chlamydia | immune response protective against live challenge (listed as Cpn0803): Protective Against a Live Challenge with Chlamydia
